Assay results as given in the nanobody polyreactivity screen of Harvey et al. (2022).

test: yeast display, Sf9 membrane polyspecificity reagent, FACS + sequencing; frameworks hold sequencing errors
Outline: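 After 36–48 hours of galactose induction, yeast (Saccharomyces cerevisiae BJ5465) displaying a synthetic nanobody library were stained at 4 °C for 1 hour with 10% biotinylated, detergent-solubilized Sf9 membrane reagent. Streptavidin microbeads enriched the stained cells before FACS sorting into low and high (top ~1%) gates on anti-HA and streptavidin fluorescence. Each clone's polyreactivity label reflects its gate of origin.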

Sequence | polyreactivity (PSR sort gate)
QVQLVESGGGLVQAGGSLRLSCAASGFIFRINAMGWYRQAPGKERELVAAISSSGGSTYYADSVKGRFTISRDNAKNTVYLQMNSLKPEDTAVYYCNAVGTGGYSSEYGYWGQGTQVTVSS | high polyreactivity
QVQLVESGGGLVQAGGSLRLSCAASGRIFTNYAMGWYRQAPGKEREFVAAISWSDGSTYYADSVKGRFTISRDNAKNTVYLQMNSLKPEDTAVYYCATEGTYGTFYSYRHFYYWGQGTQVTVSS | high polyreactivity
QVQLVESGGGLVQAGGSRRLSCAASGGTFVSYAMGWYIQAPGKERELVADITYSGGSTYYADSVKGRFTISRDNAKNTVYLQMNSLKPEDTAVYYCAADLGRNLLHTYYYWGQGTQVTVSS | low polyreactivity
QVQLVESGGGLVQAGGSLRLSCAASGRIFPTNAMGWSRQAPGKERELVASITRSGSTYYADSVKGRFTISRDHAKNTVYLQMNSLKPEDTAVYYCAGYAYIFLDWGGYPYYLYEYDYWGQGTQVTVSS | low polyreactivity
QVQLVESGGGLVQAGGSLRLSCAASGRTFIPYAMGWYRQAPGKERELVATIRRGGSTYYADSVKGSFTISRDNAKNTVYLQMNSLKPEDTAVYYCAATRYSFGPRRVDYWGQGTQVSVSS | high polyreactivity
QVQHVESGGGLVQAGGSLRLSCAASGSIFTSYAMGWSSQAPGKERELVAAITSTGGSTYYADSVKGRFTISRDNAKNTVYLQMNSLKPEDTAVYYCNADGGTPYDYWGQGTQVTVSS | low polyreactivity
QVQLVESGGGLVQAGGSLRLICAASGLTFYRYAMGWYRQGPGKERELVAGITRRGGSTYYADSVKGRFTISRDKPKNTVYLPMNSLKPEDTAVYYCNVDGISSSYPEMDYWGQGTQVTVSS | low polyreactivity
QVQLVESGGGLVQAGGSLRISCAASGSTLRRYAMGWYRQAPGKERELVAAISGSGDSTYYADSVKGRFTISRDNAKNTVYLQMNSLKPEDTAVYYCNAVYAFNGYDYWGQGTQVTVSS | low polyreactivity
QVQLVESWGGLVQPGGSLRLRCAASGLIFGRNAMGWYRQAPGKERELVAAISWSGGSTYYADSVKGRFTISRDNAKNTVYLQMNSLKPEDTAVYYCYRYRYYGSEDDYWGQGTQVTVSS | high polyreactivity
QVQLVESGGGLVQAGGSLRLSCAASGGTFVGYAMGWYRQAPGKERELVAAINSSGGRTYYADSVKGRFTISRDNAKNTVYLQMNSLKPEDTAVYYCAKPRTYHKDKYDYWGQGTQVTVSS | high polyreactivity
QVQRVESGGGLVQAGGSLRLSCAASGSTFYTNAMGWYRQAPGKERELVASITGGGSTYYADSVKGRFTISRDNAKNTVYLQMNSLKPEDTAVYYCAADNFGGGWEFDSWGQGTQVTVSS | low polyreactivity
QVQLVESVGGLVQAGGSLRLSCAASGRTFVYNAMGWYRQAPGKEREFVGAISDGGGDTYYADSVKGRFTISRDNAKNTVFLQMNSLKPEVTAVYYCNVEWQQPGYAFDYCGQGTQVTVSS | low polyreactivity
QVQLVESGGGLVQARGSLRLSCAASGSTFRYYAMGLYRQAPGKERELVAAITSSGTSTYYADSVKGRFTISRDNAKNTVYLQMISLKPEDTAVYYCAAPPVYKWVSSRYDYWGQVTQVTVSS | low polyreactivity
QVQLVESGGGLVQAGGSLRLSCAASGSTFDANAMGWYRQAPGKERELVATISDGGSTNYADSVKGRFTISRDNAKNTVYVQMNSLKPEDTAVYYCAAVKLFLGLGYDYWGQGTEVTVSS | low polyreactivity
QVQRVDSGGGLVQAGGRLRLSCAASGLNFYLYAMGLYRQAPRKEREFVAAITTSGGSTHYADSVKGRFTISRDNAKNTVYLQMNSLKPEDTAVYYCAADDYFHGPGMEFDFLGQGTQVTVSS | low polyreactivity
QVQLVESGGGLVQAGGSLRLSCAASGYTFVDNAMGRYRQAPGKERELVAAINWDGASTYADSVKGRFTISRDNAKNTVYLQMNSLKPEDTAVYYCTASGKDIFNYVYQGYDYWGQGTQVTVSS | low polyreactivity
QVQLVESGGGLVQAGGSLRLRCAASGSIFSSNAMGWYRQAPGKERELVAAITSGGSTYYADSVKGRFTISRDNAKHTVYLQMNSLKPEDTAVYYCAADDWGDGVYKLDYWGQGTQVTVSS | low polyreactivity
QVQLVESGGGLVQAGGSLRLSCAASGRTFKYYGMGWYRQAPGKERELVATISRSSSRTYYADSVKGRFTISRDNAKNTVYLQMNSLKPEDTAFYYCATLGPRSYAYDYWGQGTQVTVSS | high polyreactivity
QVQLVESGGGLVQAGGSLRLSCAASGIIFRNYAMGWYRQAPGKERELVATIRYRGGRTYADSVKGRFTISRDNAKNTVYLQMNSLKPEDTAVYYCNTYARYAYLTGRMEYWGQGTQVTVSS | high polyreactivity
QVQLVESGGGLVQAGGSLRLSSAASARIFGYYVMGWYRQAPGKERELVARIRSGGNTYYADSVKGRFTISRDNAKNTVYLQMNSLKPEDTAVYSCNADPRTGWYIYDYWGQGTQVTVSS | high polyreactivity
QVQLVESGGGLVQAGGSLRLSCAASGITFVYNAMGWYRQAPGKERELVASITFGGGSTYYADSVKGRFTISRDNAKITVYLQMHSLKPEDTAVYYCAARLHVAFDYWGQGTQVTVSS | low polyreactivity

Sequence | polyreactivity (PSR sort gate)
QVQLVESGGGLVQAGGSLRLSCAASGRIFTYNAMGWYRQAPGKERELVATITWRGGGTYYADSVKGRFTISRDNAKNTVYLQMNSLKPEDTAVYYCNRRLPGDGQYGYRRYDYWGQGTQVTVSS | low polyreactivity
QVQLVESGGGLVQAGGSLRLSCAASGIIFIVNSMGWYRQAPGKERELVADISENGGDTYYADSVKGRFTISRDNAKNTVYLQMNSLKPEDSAVYYCAKSGEPYTRFDYWGQGTQVTVSS | low polyreactivity
QVQLVESGGGLVQAGGSLRLSCAASGIILDHYAMGWYRQAPGKERELVAAISSGTRTNYADSVKGRFSISRDNAKHTVSLQMNSLKPEDTAVYNCAATIYRRYRSKYSITSYWGQGTQVTVSS | high polyreactivity
QVQLVESGGGLVQAGGSLRLSCAASGFIFADYAMGWYRQAPGKERELVAAISASGGITYYADSVKGRFTISRDNAKNTVYLQMNSLKPEDTAVYYCNAVTGKWNWRKYDYWGQGTQVTVSS | high polyreactivity
QVQLVESGGGLVQAGGSLRLSCAASGRIFHTYAMGWYRQAPGKEREFVAAIRWSGGSTYYADSVKGRFTISRDNAKNTVYLQMNSLKPEDTAVYYCAREQVRYYSWFGYWGQGTQVTVSS | high polyreactivity
QVQLVESGGGLVHAGGSLRLSCAASGRTFWTYAMGWYRQAPGKERELVAAISSGGSTYYADSVKGRFTISRDNAKNTVYLQMNSLKPEDTAVYYCATRVYGGYGYWGQGTQVTVSS | high polyreactivity
QVQLVESGGGLVQAGGSLRLSCAASGRTFWIYAMGWYRQAPGKERELVAAITGSGGSTYYADSVKGRFTISRDNAKNTVYLQMNSLKPEDTAVYYCNARVPDSYKWSAYYSHDYWGQGTQVTVSS | low polyreactivity
QVQLVESGGGLVQAGGSLRLSCAASGSTFTKYTMGWYRQAPGKERELVAAITSSGGSTYYADSVKGRFTISRDNAKNTVYLQMNSLKPEDTAVFYCAAPALYYYYYYGYDYWGQGTQVTVSS | high polyreactivity
QVQLVESGGGLVQAGGSLRLSCAASGSTFTAYAMGWYRQATREDRELVARIGGTYYADSVKGRFTISRDNAKNTVYLQMNSLKPEDTAVYYCAAEYGYDFFRSYQEYGYWGQGTQVTVSS | low polyreactivity
QVQLVESGGGLVQAGGSLRLSSAASGRIFSRYAMGWYRQAPGKERELVAAITQSGTSTYYADSVKGRFTISRDNAKNTVYLQMNSLKPEDTAVYYCNAYRQYRYDYWGQGSQVTVSS | low polyreactivity
QVQLVESGGGLVQAGGSLRLSCAASGLIFAGYAMGWYRQAPGKERELVAAITWRGGRTYADSVKGRFTISRDNAKNTVYLQMNSLKPEDTAVFYCAVRRWGTSFVEDDYWGQGTQVTVSS | low polyreactivity
QVQLVESGGGLVQAGGSLRLSCAASGLIFGWYAMGWDRQAPGKERELVAAITRSGGSTYYADSVKGRFTISRDTAKNTVYLQMHSLKPEDTAVYSCAAEIHYSYTRGYGYWGQGTQVTVSS | high polyreactivity
QVQLVETGGGLVQAGGRLRLSCAASGSIFPDYDMGWYRQAPGKQRELVAAISSSGDSTYYADSVKGRFTISRDNAKNTVYLLMNSLKPEDTAVYYCAVDGTRSTSNGSEFTGYNYWGQGTQVTVSS | low polyreactivity
QVQLVESGGGLVQAGGSLRLSCAASGYTFYYYAMGWYRQAPGKEREFVAAISWRGGRTYYADSVKGRFTISRDNAKNTVYLQMNSLKPEDTAVYYCAARRDGWTFWKYDYWGQGTQVTVSS | high polyreactivity
QVQLVESGGGLVQAGGSLRLSCADSGSTFGYYAMGSYRQAPGKERELVAAITSTGRTKYADSVKGRVTISRDNAKNTVNLQMNSLKPEDTAVYYCAADIWGQGTQVTVSS | high polyreactivity
QVQLVESGGGLVQAGGSLRLSCAASGTFYTYAMGWYRQAPGKERELVAAINGGGRTYYADSVKGRFTISRDNAKNTVYLQMNSLKPEDTAVYYCAARPRWSPSKYDYWGQGTQVTVSS | high polyreactivity
QVQLVESGGGLVQAGGSLRLSCAASGSTFINYAMGWYRQAPGKERELVAVITSDDGSTYYADSVKGRFTISRDNAKNTVYLQMNSLKPEDTAVYYCAADYYDQRYRPGPWYDYWGQGTQVTVSS | low polyreactivity
QVQLVESGGGLVQAGGSLRLSCAASGFTFQYYAMGWYIQAPGKERELVATITTSGGNTYYADSVKGRFTISRDNAKNTVYLQMNSLKPEDTAVYYCAARRYRASSRGYGYWGQGTQVTVSS | high polyreactivity
QVQLVESGGGLVQAGGRLRLSCAASGSTFYWNTMGWYIQAPGKERELVAAISRRGGSTYYADSEKGRFTISRDNAKNTVYLQMNSLKPEETAVYYCNKLLSQRRYHSEMDYWGQGTQVTVSS | high polyreactivity
QVQLVESGGGLVQAGGSLRLSCAASGIFFHYAMGWYKQAPGKERELVAAISYSGGRTYYADSVKGRFTISRDNAKNTVYLQMNSLKPEDTAVYYCAARYYIGYGHRTYGYDYWGQGTQVTVSS | high polyreactivity
